Experimental data from article PMC12143592, “Bacterial RecD2 is a processive single-stranded DNA translocase with strand-switching capacity at DNA forks” (Nucleic Acids Research, 2025).

T1: RecD2 (His-tagged) (Bacillus subtilis, UniProt O34481 1-798)
T1 sequence: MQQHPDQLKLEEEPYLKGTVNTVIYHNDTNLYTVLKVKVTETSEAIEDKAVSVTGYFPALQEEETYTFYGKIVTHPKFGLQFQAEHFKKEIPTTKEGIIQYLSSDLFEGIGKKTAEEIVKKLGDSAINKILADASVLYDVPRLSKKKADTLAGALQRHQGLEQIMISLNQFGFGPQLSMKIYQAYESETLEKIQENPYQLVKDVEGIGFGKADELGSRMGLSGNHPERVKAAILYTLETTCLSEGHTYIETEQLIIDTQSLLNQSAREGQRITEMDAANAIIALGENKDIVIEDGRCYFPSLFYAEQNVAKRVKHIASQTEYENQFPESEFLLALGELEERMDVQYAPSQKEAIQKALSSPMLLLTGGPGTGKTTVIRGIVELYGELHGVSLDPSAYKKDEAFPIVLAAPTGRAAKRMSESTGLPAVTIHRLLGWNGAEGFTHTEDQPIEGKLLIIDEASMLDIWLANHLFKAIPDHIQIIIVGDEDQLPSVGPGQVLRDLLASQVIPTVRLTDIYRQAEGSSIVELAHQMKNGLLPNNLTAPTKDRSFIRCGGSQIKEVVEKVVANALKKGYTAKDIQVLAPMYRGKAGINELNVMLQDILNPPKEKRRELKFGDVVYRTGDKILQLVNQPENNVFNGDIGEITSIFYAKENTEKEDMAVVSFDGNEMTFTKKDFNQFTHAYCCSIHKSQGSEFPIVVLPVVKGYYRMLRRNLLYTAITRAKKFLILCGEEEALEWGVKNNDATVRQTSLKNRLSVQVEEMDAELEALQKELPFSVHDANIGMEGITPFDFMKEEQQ

B1: 80-nt random ssDNA (17-M-80) (ssDNA)
DNA: ACGGCCTAGAACGGCCTAGAACGGCCTAGATCGTGAACCTGCAGGTAAGGGGCTGCTCATCGTAGGTTAGCGTAAATTAG
B2: 60-nt random ssDNA (17-M-60) (ssDNA)
DNA: ACGGCCTAGATCGTGAACCTGCAGGTAAGGGGCTGCTCATCGTAGGTTAGCGTAAATTAG
B3: 30-nt random ssDNA (22-M-30) (ssDNA)
DNA: CTAATTTACGCTAACCTACGATGAGCAGCC
B4: RecD2 (BsRecD2) (Bacillus subtilis subsp. subtilis str. 168) (protein)
chain: T1 sequence
B5: poly(dT)30 (ssDNA)
DNA: TTTTTTTTTTTTTTTTTTTTTTTTTTTTTT

What was measured:
RecD2 (His-tagged) [1] = target: T1, RecD2 (His-tagged); test: EMSA; conditions: 2 mM MgCl2, 1 mM ATPgS, EMSA: 0.25 nM 32P-DNA, buffer B (composition not in material), 2 mM MgCl2 (or 10 mM), 15 min 37 C, then 0.05% glutaraldehyde 15 min 37 C, 8% PAGE …
RecD2 (His-tagged) [2] = target: T1, RecD2 (His-tagged); test: EMSA; 10 mM MgCl2, 1 mM ATPgS; EMSA: 0.25 nM 32P-DNA, buffer B (composition not in material), 1 mM ATPgS, 2 mM MgCl2 (or 10 mM), 15 min 37 C, then 0.05% glutaraldehyde 15 min 37 C, 8% PAGE; single-molecule: buffer A (composition not in material); conditions: protein: recombinant; tags: 6xHis (not removed); label: 32P
RecD2 (His-tagged) [3] = target: T1, RecD2 (His-tagged); test: EMSA; 2 mM MgCl2, 1 mM ATPgS; EMSA: 0.25 nM 32P-DNA, buffer B (composition not in material), 1 mM ATPgS, 2 mM MgCl2 (or 10 mM), 15 min 37 C, then 0.05% glutaraldehyde 15 min 37 C, 8% PAGE; single-molecule: buffer A (composition not in material); conditions: protein: recombinant; tags: 6xHis (not removed); label: 32P
[4] = substrate: Nc1ncnc2c1ncn2[C@@H]1O[C@H](COP(=O)(O)OP(=O)(O)OP(=O)(O)O)[C@@H](O)[C@H]1O; test: coupled ATP/NADH spectrophotometric ATPase assay, Michaelis-Menten fit; assay type: biochemical, Bacillus subtilis; conditions: ssDNA cofactor dT80 (3 μM nucleotides), 5 nM RecD2, 2 mM MgCl2, pH 7.5, 37 °C, turnover printed as Vmax per RecD2

| Molecule | apparent K (half saturation) (RecD2 (His-tagged) [2]) [nM] | apparent K (half saturation) (RecD2 (His-tagged) [3]) [nM] | also measured |
| --- | --- | --- | --- |
| 3'-tailed duplex (30 nt tail) |  |  | K half (RecD2 (His-tagged) [1]): 14 nM |
| 5'-tailed duplex (30 nt tail) |  |  | K half (RecD2 (His-tagged) [1]): 16 nM |
| B1 | 39.1 ± 15.4 | 11.1 ± 5.4 |  |
| B2 | 44.2 ± 14.1 | 13.5 ± 4.2 |  |
| B3 | 246 ± 20.2 | 212 ± 17.7 |  |
| B4 |  |  | Km [4]: 82 µM; kcat [4]: ~223 s⁻¹ |
| B5 |  | ~6 |  |
